# Experimental data published in patent US20240360228A1 (BIOLEGEND, published 2024).
# Substitutions are numbered along the chain they refer to.
# B1: AB13 (antibody, V domains shown)
# VH: EVQLVETGGGLVQPKGSLKLSCAASGFTFNAYAMNWVRQAPGKGLEWVARIRTKSNNYATYYADSVKDRFTISRDDSQTMLYLQMNNLKTEDTAMYYCVRDRATVTTGRAMDYWGQGTSVTVSS
# VL: DIVMTQAAPSLPVTPGESVSISCRSSKSLLHSNGNTYLYWFLQRAGQSPQLLIYRMSNLASGVPDRFSGSGSGTAFTLRISRVEAEDVGVYYCMQHLEYPFTFGSGTKLEIK
# notes: Hybridoma monoclonal; also called antibody 13; clone 13
# B2: AB15 (antibody, V domains shown)
# VH: EVQLVESGGGLVQPKGSLKLSCAASGFTFNTYAMNWVRQAPGKGLEWVARIRSKSNNYATYYVDSVKDRFTISRDDSQSMLYLQINNLKTEDTAMYYCVRGRELGPYSAMDYWGQGTSVTVSS
# VL: B1 VL with L11V, A45P, V90L, S105G
# notes: Hybridoma monoclonal; also called antibody 15; clone 15
# B3: AB8 (antibody, V domains shown)
# VH: AVQLVESGGGLVQPKESLKISCAASGFIFSNAAMYWVRQAPGKGLQWVARIRTKPKNYATYYIDSVKGRFTISRDDSKSMVYLQMDNLKTEDTAMYYCNTMGLTRAYYFDYWGQGVMVTVSS
# VL: DIQMTQSPSFLSASVGDRVTINCKASQNINRYLNWYQQKLGEAPKLLIYNANSLQTGIPSRFSGSGSGTDFTLTIRSLQPEDVATYFCLQHNSWPWTFGGGTKLELK
# notes: Hybridoma monoclonal; also called antibody 8; clone 8
# B4: AB5 (antibody, V domains shown)
# VH: QVQLKESGPGLVQPSQTLSLTCTVSGFSLTSYHVSWVRQPPGKGLEWMGVIWTGGSTTYNSLLKSRLSISRDISKSQVFLKMNSLQTEDTATYYCARGGTVVKGGFAYWGQGTLVTVSS
# VL: DIQMTQSPASLSASLEEIVTITCQASQDIGNRLSWYQQKPGKSPQLLIYGATSLADGVPSRFSGSRSGTQYSLKISRLQVEDIGIYYCLQAYSTPLTFGSGTKLEIK
# notes: Hybridoma monoclonal; also called antibody 5; clone 5
# Key:
# [1] = target: T1, human chemokine (C-C motif) receptor 8 (CCR8) (human, UniProt P51685 1-355); test: cell-based or functional assay
# [2] = target: T1, human chemokine (C-C motif) receptor 8 …; test: flow cytometry blocking, PBMC CCR8+ CD4+ cells; competitor PE-AB1 (its MFI is read)
# Procedure: (§1) For blocking studies, 100 μL of the cell suspension were incubated with 10 μg purified isotype control, AB1, AB2, AB3, AB4, AB5, AB8, AB9, AB10, AB11, AB12, AB13, AB14, AB15, and Commercial ABI antibodies, or isotype control, as blocking agents.
# (§2) After incubation with the blocking agent, the cells were incubated with 0.25 μg of the indicated PE-conjugated antibody plus anti-human CD4 APC or anti-human CD3 for another 15 minutes in the dark and then washed 2 times with Cell Staining Buffer, and acquired in a FACSCanto II flow cytometer (BD Biosciences); the data was analyzed using FCS Express (De Novo Software); MFI correspond to the CCR8+ CD4+ lymphocytes or CCR8+ CD3+ lymphocytes.
# (§3) Percentage original MFI was calculated by dividing the MFI of samples blocked with AB1, AB2, AB3, AB4, AB5, AB6, AB7, AB8, AB9, AB10, AB11, AB12, AB13, AB14, AB15, and Commercial ABI antibodies, by the MFI of samples blocked with the corresponding isotype control. This value was subtracted from 100 to get a blocking percentage. The formula is shown below: […]
# [3] = target: T1, human chemokine (C-C motif) receptor 8 …; test: flow cytometry blocking, PBMC CCR8+ CD4+ cells; competitor PE-AB2 (its MFI is read)
# Procedure: as §1, §2, §3
# [4] = target: T1, human chemokine (C-C motif) receptor 8 …; test: flow cytometry blocking, PBMC CCR8+ CD4+ cells; competitor PE-AB3 (its MFI is read)
# Procedure: as §1, §2, §3
# [5] = target: T1, human chemokine (C-C motif) receptor 8 …; test: flow cytometry blocking, PBMC CCR8+ CD4+ cells; competitor PE-AB4 (its MFI is read)
# Procedure: as §1, §2, §3
# [6] = target: T1, human chemokine (C-C motif) receptor 8 …; test: flow cytometry blocking, PBMC CCR8+ CD4+ cells; competitor PE-AB5 (its MFI is read)
# Procedure: as §1, §2, §3
# [7] = target: T1, human chemokine (C-C motif) receptor 8 …; test: flow cytometry blocking, PBMC CCR8+ CD4+ cells; competitor PE-AB6 (its MFI is read)
# Procedure: as §1, §2, §3
# [8] = target: T1, human chemokine (C-C motif) receptor 8 …; test: flow cytometry blocking, PBMC CCR8+ CD4+ cells; competitor PE-AB10 (its MFI is read)
# Procedure: as §1, §2, §3
# [9] = target: T1, human chemokine (C-C motif) receptor 8 …; test: flow cytometry blocking, PBMC CCR8+ CD4+ cells; competitor PE-AB11 (its MFI is read)
# Procedure: as §1, §2, §3
# [10] = target: T1, human chemokine (C-C motif) receptor 8 …; test: flow cytometry blocking, PBMC CCR8+ CD4+ cells; competitor PE-AB12 (its MFI is read)
# Procedure: as §1, §2, §3
# [11] = target: T1, human chemokine (C-C motif) receptor 8 …; test: flow cytometry blocking, PBMC CCR8+ CD4+ cells; competitor PE-AB13 (its MFI is read)
# Procedure: as §1, §2, §3
# [12] = target: T1, human chemokine (C-C motif) receptor 8 …; test: flow cytometry blocking, PBMC CCR8+ CD4+ cells; competitor PE-AB14 (its MFI is read)
# Procedure: as §1, §2, §3
# [13] = target: T1, human chemokine (C-C motif) receptor 8 …; test: flow cytometry blocking, PBMC CCR8+ CD4+ cells; competitor PE-AB15 (its MFI is read)
# Procedure: as §1, §2, §3
# [14] = target: T1, human chemokine (C-C motif) receptor 8 …; test: flow cytometry blocking, PBMC CCR8+ CD4+ cells; competitor PE-ABII (its MFI is read)
# Procedure: as §1, §2, §3
# T1 sequence (P51685 whole entry): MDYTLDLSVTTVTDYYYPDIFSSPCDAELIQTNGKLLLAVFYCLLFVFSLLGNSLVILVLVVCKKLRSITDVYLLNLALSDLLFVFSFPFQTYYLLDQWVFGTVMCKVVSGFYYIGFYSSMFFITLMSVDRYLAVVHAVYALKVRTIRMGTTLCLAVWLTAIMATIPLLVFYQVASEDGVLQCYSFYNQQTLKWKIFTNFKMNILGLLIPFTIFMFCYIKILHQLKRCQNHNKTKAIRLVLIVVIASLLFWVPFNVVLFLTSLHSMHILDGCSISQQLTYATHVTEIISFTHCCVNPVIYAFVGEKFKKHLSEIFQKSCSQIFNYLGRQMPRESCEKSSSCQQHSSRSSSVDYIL
Binder,% hCCR8-Ba/F3 - THP-1 complexes [1] [%],% Blocking [2] [%],MFI [2],% Blocking [3] [%],MFI [3],% Blocking [4] [%],MFI [4],% Blocking [5] [%],MFI [5],% Blocking [6] [%],MFI [6],% Blocking [7] [%],MFI [7],% Blocking [8] [%],MFI [8],% Blocking [9] [%],MFI [9],% Blocking [10] [%],MFI [10],% Blocking [11] [%],also measured
B1,1.16,-41.5,927,-54.3,1030,-39.7,970,-42.8,975,-35.7,1020,-30.7,1020,-36.6,1380,37.7,562,-0.1,977,27.4,MFI [11]: 680; % Blocking [12]: -413%; MFI [12]: 4550; % Blocking [13]: -15.9%; MFI [13]: 919; % Blocking [14]: 12.2%; MFI [14]: 972
B2,1.07,-51.8,995,-60.8,1080,-61.4,1120,-45.6,994,-29.4,970,-35.7,1060,1.55,992,20.9,713,34.1,643,-3.67,MFI [11]: 971; % Blocking [12]: 38.4%; MFI [12]: 546; % Blocking [13]: 19.4%; MFI [13]: 639; % Blocking [14]: -0.05%; MFI [14]: 1110
B3,1.78,-49.5,980,-42.4,953,-43.3,994,-40.9,962,-27.2,953,-20.4,944,-81.3,1830,40.4,537,20.8,773,33.4,MFI [11]: 623; % Blocking [12]: 6.78%; MFI [12]: 826; % Blocking [13]: -56.6%; MFI [13]: 1240; % Blocking [14]: 27%; MFI [14]: 808
B4,1.51,39.7,395,47.1,355,47.3,366,-6.8,729,44.9,413,35.7,504,-7.11,1080,-11.2,1000,-17.2,1140,-5.77,MFI [11]: 990; % Blocking [12]: -4.39%; MFI [12]: 925; % Blocking [13]: -6.62%; MFI [13]: 845; % Blocking [14]: -8.53%; MFI [14]: 1200
